Assay: soluble on expression in E. coli; label from the status in PepcDB or PDB records

Sequence	soluble on expression in E. coli
MNNWKLILPLMMSGSLIACTSTQTTTEPVEPETPKVEQPVTVEPEVKPEVEPKPEVKPKPETKPEKKPEPKPEKPVKVQKTPDGMLILGSEEWVYVPAIDQTFKARVDTGATTSSISATEIVPFERDGKDWVQFKIDINGKTSKEFKVPVERWAKVKQSSSDEVDKRAVVVAYIQVGDYKEKTEFTLADRDHMKFPILLGRSFFRDIAVVDVSKKYIQDKPTKSTKK	not soluble
MNQRLVYVVSDSGGETAELVVKAAASQFHASPIQVKRVPYVEDKTTLAEVVALAKMNRAIIAFTLVVPEMREFLLAEAAREGVVAYDIIGPLIEKMSHLFQLTPRYEPGQVRVLDEDYFKKIEAIEFAVKYDDGRDPRGILRADIVLIGVSRTSKTPLSQYLAHKRLKVANVPIVPEVEPPEQLFRVGPGKCFGLKISPDKLLSIRRERLKSLGLNDQAIYANMDRIKEELAYFDEVVKKIGCDVIDVTNKAVEETASIIMKKLKR	not soluble
MNQSADAKPPKPDGRVTRSVTVRKLGPGANKEKQESDNSQKKKTVNAAAQKADTSSKRNSGNPQKPKKPKHEAIKVSTRRLSASSKPPPPAPQNVPKMNSFVGNGNTRMIMVQTTPQAKKLEAEMKLRMQNKGESPEASLLVLESRTPEPTVQQVLEELQNDVVNPKSSTTPEGYSFELRNLKTPEIPAMPTPLACSPAAARNSPVVKKIQNHVPNVTLVPSEPREPSLRKLHLGTLKLKFLAFPLTTGFKKLQKLQDPLARIKLATEKLKERRAQLDTQKKHTMFLPEAFIGPHFNETIASGFYALFNASHFQVHYNSEGKRLGSGTMCVLKNQMNGARDWFAGNTWRAVKMMYMRTRDAEKHKNSEVKLFVEKLPDWSTEQLEEKLRNEFKLSDFQLLYDYKGNNLRSAIVLLKYPDAINLCNSIRSNPTVFGKEWHPRVFEVLDVAVQPPIDK	not soluble
MNRDLPVLRALRSLPDKVVGEALVSNDAISMRYDVDASTGKVVRPSHDLYGQSISGKVLIFKNTKGGVATGWALLNLKSRGTAPIALVCDTTNPVFVQGAALAGLPIMDGFRESPRSAVRTGDVVELDGISGELKVLRRGAGGQLEHHHHHH	not soluble
MNREFVEAMQHLALERGVSVEEILKAFKRALRKAYIKRQKGYKKEEIDQGKGPEVDVYIDPNSGRIEMVKVRRVVEKVEDPDKEIALAEALQYDPEVQVGDEMEFPINPEELSRMAIQDLRQILTQRLKESERNRIYNEYKDKEGQVLTGVVTRVDNRGNVFVELGRGEAYLPRSEQIPTEKYHPGQRIKVYLKKVDKSAKGPSLLVSRAHEKLLEHLLKQEVPEIAEGIVEIKAIAREPGRRSKVAVTSHNPNVDPIGACIGHKGQRIQAVSAELGREKVDIILWSKDPKEFIRNALSPAQVGSIELDPEAKKARVKVTKDQHSLAIGTGGQNVRLASKLTGYDIHFEEAEISDLDEALRRAAEEEAEARERKAREEFEKLFRDLG	soluble
MNRKPRTRSTIVPGRKMITEIVALREAGLDDTRPSYLEEPTVIVDESMMNDSANLEEREWRKQGLSEKQMFAILEKRKQTQLNNARKRLEKEMYGAKTFKELIACREYSECESDSENTVNQNVRSASVFAIPALPKHISEKSMMGSPIANSRGSGKAGLSCSTPKSSSDTSMRSLRSLDISHVVNTDRLDAERVTVHTKSVVIPTILEERESTLQKTLTIEKNHSSQLQKTFTVAEDAPEELQKTVTIEKNQSSEMQRTFTVAKDASKEQSQLQRTVTIEKNQSSQLQGNFTVAKDAPEELQKTVTIEKNQSSEMQGTVTVAKDAEHSSLQKTFTKPTEKDESSLQRTFNVANRDENNDSTLQKTFIIEERDAYEQGTTSVGVKPPVLAQNTMEGGEKRRTSKVTSDERERRNASISNPLHNSMLEKEEIQSPGANFFKHPRKKIRPVVQTPPRIKATSRLSTESNKERTIEMESVAEERTMEADSIGSSYISPTFNASRVSPVPEVPEKVEPMHVSKAATPKSIRHTDNSIRNIGPTNNVECARAALLSTPTRMDIVDSVNRVTPARRYEQPTFASLVKRMNMKDANRLLEETSRKNTPAKTTATTSSAAVRMVLEDDEEDQATEVIEKRSENGGVIVDGEDEAADSSNRSLNIELNALTVNEEPAHDISAIDFPEDDTNEMRSSSDEEEMEARPDPRKKSSRRLGLLSDSIALGLASSSRRRPNDTFVDETWYPEPNSKGNRRPRTHRGMKLKEHQLMKPEDAPDGVRRSTRVRVKPVRSWLGEQPVYVNSPISGCKRLTGVTAVVIKDPRLCYYRTADVRTATERELKDKANKRALAQEKKQQRQNARSGRRHDSDDDEEDDM	not soluble
MNRLHGQQVKIGYGDNTIINKLDVEIPDGKVTSIIGPNGCGKSTLLKALSRLLAVKEGEVFLDGENIHTQSTKEIAKKIAILPQSPEVADGLTVGELVSYGRFPHQKGFGRLTAEDKKEIDWAMEVTGTDTFRHRSINDLSGGQRQRVWIAMALAQRTDIIFLDEPTTYLDICHQLEILELVQKLNQEQGCTIVMVLHDINQAIRFSDHLIAMKEGDIIATGSTEDVLTQEILEKVFNIDVVLSKDPKTGKPLLVTYDLCRRAYS	not soluble
MNRMRWVGEGDIWDLDMSTPVTLEGTARAVPDDPLPLGLSRGTRLSRPKQVEFFHRFMASPLIPSFSPIRPNTGDGGGGGFSLQRVLTLPFSNNWLVSLLGQFDVQRFVTEIDKTKAFGRGSSSTVASRLNTIGKHLKDKSLYALGFCSEFLLSPDDTLLLSYDAYKGDLDKNPRAKAIFNHEFPLHNLTAEAVWPGLFVDKHGEYWDVPLSMAIDLASLPAESGPSYHLCLHHNSGSPKKLHSDTMEVPPPSLLPGLSLKSAVSYRTNMDLWRGTTPKLETCKPYDVFLSSPHVAVSGIIGSVMTAAFGENSIRSKFENDSEGVGGFSLHFPSVNSGFMADALGRASLTAQYGNFQKFFFDLTRFHARLDFPHGLRFLTGATSVAQDLLNSRQPSLEAFQKICPEVLVSLQQQIVGPFSFKVESGIEIDLRNGANPVTVDKTVFAIEYALQVLLSAKAVVSYSPKQNEFMVELRFFET	soluble
MNRREANALDRYLTEPTEKPHKETYEDDPVDTTDYFGNEIADEDGVFEITFAMKCLYTGQPVLTCKKIATQDTIVDLIEELGEENVYLIEYVSSGKRYKEGLLND	not soluble
MNRTAMRASQKDFENSMNQVKLLKKDPGNEVKLKLYALYKQATEGPCNMPKPGVFDLINKAKWDAWNALGSLPKEAARQNYVDLVSSLSPSLESSSQVEPGTD	soluble
MNRYRKILVAGIIDQEEQPALKRALDIANRTTKPSEITLFCTTYDFSYEMTSMLSADERMAMRNGVVSQKVKMLNDVIADYSKSDHVTITIKVVWHNRPYEAIINEIFDDSYNILIKATRQHAKLETVFFTPTDWHLLRKSPIPVLLVKERPWPENGNILASVHVGSENPAHLQLNDKMVDEAIYFAEVLNSTPHLVNAYPSTPPSIHVELPEFNAVQYKDAIRGHHLTQMKALRQKYGIPEEQTHVYEGPTEEVISEVEDELTAGLVILGTTGRTGLSAIFIGNTAENTLDLLNCDILALKPDGYISPLDPNHIS	not soluble
MNSAGLEQCGMIMTRKNYYITTDGLLKRNENTLYFINKDLKRPIPINKIYSIYSYGALTISSQALNLLSKEGIPIHFFNRYGFYSGSFYPRETLLSGDVIIKQAEHVIDHDKRIELARSFVRGAALNMRRVLSYYGIENGISDTLMDLDSSNSVTDVMNVEGRIRSDYYNAIDSILPEGFRIGKRTRRPPENMTNAMISFGNSLLYSTVITELYNTQLNPTISYLHEPFERRYSLALDLSEIFKPTLIDRMIISLIKKKAIKAEDFEHGMNHCLLNNSGKRKFLAEYDRRLGKTVKHRELGRKVSYRRLIRLEAYKLIKHLIGQKSYEPFVMWW	not soluble
MNSALYANYLNILKQELVPALGCTEPIAIAYAAAKAHQVLGEFPDSVNMSLSGNIIKNVKGVTVPNSGGLKGIDVAAILGIVGGNADKALEVLSEITEDDIARTRELVKQHVCSCSLVEGVDNLYITAKVIKGDHFASVTIEHQHTNITRIEKDGEVILDNPYQAECKTVIDKSKLTVKDILDFADQVRIEDVQPIIDRQIKLNSAIAQEGLDNNYGAQIGKTLMHVWGKSVTTRACARAAAGSDARMGGCSMPVVINSGSGNQGMTVSLPVIVFADEWEVSHEKLCRSLVVSNLIAIHQKYYIGSLSAYCGAVSAACGAGAGITYMYGGTYQQVSLTIINTLGNVGGIVCDGAKPSCAAKIASSVDAALMAFQLSIQNKSFLPGEGIIKDDIEETIKSMGYIGRVGMRSTDTEILNVMIDRADINQGC	not soluble
MNSAPKLNTFQHLIGEHQTFLEAKRIAKQFSLSELPVLITGKIGTGKNHFAHAIHLESSRSNEPFISVNCSTHSEETLIHELFGPNGNTGVFQKAVRGTLFLDDVWRMPASVQAQLLKALDSDTEKPRMICASADRSVEHTFRQDLFYRLNILTLTLPELSERKSDIPLLTQHFLSNSGQQLLIDPSVFPVLEKHAFEGNVRELKNAADYMAAVSSGGTIQPYDLPPYIRGTIDGKTSKKKAKLLTLMEKAEFLFILETIKVLNEKGEPASRRIISEHSKNTQTSLTPQQVRSRLDYLEKKDYVTKSRGRAGTKITFEGLSFIETLKNQMILEHHHHHH	soluble
MNSITCPKCGTECDKLFDSVCRDCFFETFKLIDLPLVLHVKICSSCGAYFHRSRWENIGNLEEVVLKAVENALFIHDEAGDVELYLEPKEITPYIYMVRAEVDAIVRGEPVHAEAATEVRVQRIACDMCSRESGGYFEAIIQIRAAGRFPTEEEKRRCSAIAREAMESMKKKGDRLAFISDYQEQKEGIDLYMGSMNASRQVCRMIISELGGSFAESPTLVGMKDGKNLYRITFAMRLPEFRPGDVIRFRGRIIQIRSSGKKVNGISLEDGSRFLSTPEELKGAEKIANIGDAVLTVLVSIEENAILVLDPETYETVAIKKPMFFNAEAGSEIPVLKTEYGIFALAHTDIPQEKLEHHHHHH	soluble
MNSLDSQITALYTLAHELLYLGSDGSPIYSDHFSRLNGDVLSRANTLYPHHGSTDEEEARLCLSLLMGYNATIYNNGDKEVRIQQILNRCWEVLDRLPASLLKVRLLTYCYG	not soluble
MNSLSLPHRYPFLFIDGVTDSEPGKHAAAYKLISENDWFITDTQTEMPFSLVIEGLRKPRLLQELQMRTAWDYCLRKRKSWEKLCLVTGLILRLKSRAIGAGLCSDMPRHQLESSLLLKLKSASILKNEKNPSQHFVRGSILCRNPVRFESYLFAGVCVFHHSYFPSALHLEHHHHHH	not soluble
MNSLSTEQLGIGYGDRVIVEDLNISIPKGKITTLIGPNGCGKSTILKTMSRIMRSHAGAVYLNGKAIHKMSTKDIAKDMAILPQTPEAPSGLTVHELVSYGRFPHQSGFGRLNDEDRRIIKWALEETGMAEYAERPIEALSGGQRQRVWIAMALAQGTELLLLDEPTTYLDLAHQLEILQLLDRLNKEQGRTILMVIHDLNHAARFSHYMIALKKGTVIKEGTALEVMTPDILKQVFQIDAEIVTDPRTNKPVCLTYDLIKNEKELVTV	not soluble
MNSQQEWEHAYSLAERMYNKQAPTKREELNPTERVICSRFETIFDYDPFKDEYTFRDQALLFSTPVQPKCRTVAEADLHELKENTAKLNIPMPSYINICPIYALLPFTVLVFNNSQHAHKSLSDDMERAAATFRNPHESEIVPGAMYIFKQKHGKAYRCIILSEDGDMNIPDAERKYLVAFIDNVQIVSVKQKTLFVSDQFSIKDYPCALHCARIVGISAIRKSYVSGMNQFILNFYDAKEKRKAGMFAFIYKLDKEEKKLVIDYPSLLGTPKTTSTEIRTAVGHQIVASKDPVSLTFEQLNKKEVPEFKYLNSTDDDSDVELDLIEHDTKSVNPVASSHPTSSSMDDCPYGRASIARAKDYQLRLPPHSQKGLSSSSLLGSSYPVSNSIKNDITKQSESNRADATNISFSSFESTKSDISPQNNQNVEETSTPTVPPNSTIQENEEDEIMSPASIIRAPSRLAGSLNKVSIERPNTPLPTSSKNSEHNMSEISTYEASSISSHHLVPQSPSVPKTNYTVPVVQRPLTAPEKFRDPFGGPGSSDILNTKMLCSEKNIVPSNKFGRQISPGKDDKNENYQYSRMETKPQTLFAPVLDENQRQSSSSNMMCQIPDISSVAQVGFL	not soluble

— the DeepSol protein solubility set
